Test results taken from patent US5580955A, “Fragments of neurofibromin (NF1) and method to reverse activated ras induced malignant transformation in mammalian cells” (Ludwig Institute for Cancer Research, priority 1995, dated 1996).
Entries after “also recorded” stand apart in the source; their conditions may differ.

Experiments:
[1] = system: V-HaRas transformed NIH/3T3 cells; experiment: soft agar colony (SAC) formation by V-HaRas transformed NIH/3T3 cells transfected with NF1 fragment plasmids; assay type: cell-based; conditions: for SAC (%), relative soft agar colony forming ability: non-transfected clone #0 = 100; for Colonies/10^3 cells (number of colonies found in soft agar): 1000 cells per plate, 37° C., three weeks; for ability to form soft agar colonies (in words): compared with non-transfected parental V-HaRas transformed cells
Procedure: The transfectants were then cloned in the presence of a neomycin analogue, i.e., G418 at 400 ug/ml. The transfectants were initially screened for viability in the G418 medium, following Maruta et al., supra., and Nur-E.-Kamal et al., supra.
After the transfectants were screened for viability, the ability of the parental clone and each surviving transfectant to form soft agar colonies (SAC) were then examined by incubating 1000 cells per plate at 37° C. for three weeks under standard culture conditions, as described in Maruta et al., supra.

c-HaRas protein = experiment: Ras GTPase stimulating activity: hydrolysis of [gamma-32P] GTP bound to c-HaRas protein, by GST fusion NF1 mutants; assay type: biochemical, murine; conditions: for Activation (fold), Ras GTPase activation: 20 ug/ml NF1 mutants; for Activation (fold), Ras GTPase activation / EC50, concentration required for 50% hydrolysis of GTP bound Ras: 25° C., 20 minutes
Description: N- and C- terminal deletion mutants were constructed by subcloning the corresponding PCR DNA fragments into the bacterial expression vector pGEX-2TH, as described in Maruta et al., supra. FIG. 4 sets forth the DNA fragments inserted into the expression vector. The number following NF of each mutant indicates the total amino acid residues included. The DNA fragments inserted include the DNA for human type I NF357, human type II NF1-GRD (amino acid residues 1355 to 1531 in addition to the insert of 21 amino acids) and murine c-HaRas (residues 1-189). The type II-specific insert of 21 amino acids is indicated by the number 21 above a triangle following codon 1371. This 21 amino acid insert is set forth in SEQ ID NO: 2. The solid rectangle indicates the GAP active center of 56 amino acids, whereas the shaded rectangle indicates a supporting domain of 22 amino acids.
The expression vectors were transfected into E.coli and the protein expressed as GST fusion proteins. The fusion proteins were thereafter purified from E.coli as glutathione S-transfeRase fusion proteins and affinity-purified on a glutathione (GSH)-agarose column, as described in Maruta, et al., supra.
The purified proteins were then screened for Ras GTPase stimulating activity. The assay was carried out for each of the NF357 deletion mutants.
The hydrolysis of [gamma-^32 P] GTP bound to c-HaRas protein was determined by incubating with bound protein at 25° C. for 20 minutes in the presence or absence of each NF1 mutant preparation in 100 ul of a buffer containing 50 mMTris-HCl, pH 7.5, 15 mMMgCl2, 2.5 mM EDTA, 3 mM ATP, 1 mM dithiothreitol (DTT) and 0.5 mg/ml bovine serum albumin (BSA), then precipitating the unhydrolyzed [gamma-32P] GTP with charcoal, and finally measuring the radioactivity of the [gamma-32P] inorganic phosphate in the supernatant, as described previously, Maruta et al., supra. Protein concentrations were determined by the Bradford method with BSA as a standard.

[2] = system: V-HaRas transformed NIH/3T3 cells; experiment: morphology of V-HaRas transformed NIH/3T3 cells overexpressing NF1 fragments; assay type: cell-based; conditions: liquid culture, compared with parental V-HaRas transformed cells
[3] = clone #8, relatively low (L) steady-state mRNA level
[4] = clones with relatively high (H) mRNA level
[5] = clones with relatively high (H) steady-state mRNA level

Molecule: NF56: NF1 fragment, amino acid residues 1441 to 1496 (RPFNDFVKSNFDAARRFFLDIASDCPTSDAVNHSLSFISDGNVLALHRLLWNNQEK)
- reversion of activated Ras induced transformation (in words) ([1]; expression of the fragment in transformed cells): leads to reversion of activated Ras induced transformation; also recorded: capable of reversing Ras transformation
- Ras GTPase stimulation (in words) (c-HaRas protein): no longer able to stimulate Ras GTPase activity; also recorded: cannot stimulate; also recorded: does not stimulate GTPase activity; also recorded: not capable of GTPase activation
- Activation (fold), Ras GTPase activation (c-HaRas protein): 0 fold

B1: NF 327: NF1 fragment, residues 1205-1531 (protein, UniProt P21359 1205-1531, looked up, fragment)
chain: FERLVELVTMMGDQGELPIAMALANVVPCSQWDELARVLVTLFDSRHLLYQLLWNMFSKEVELADSMQTLFRGNSLASKIMTFCFKVYGATYLQKLLDPLLRIVITSSDWQHVSFEVDPTRLEPSESLEENQRNLLQMTEKFFHAIISSSSEFPPQLRSVCHCLYQATCHSLLNKATVKEKKENKKSVVSQRFPQNSIGAVGSAMFLRFINPAIVSPYEAGILDKKPPPRIERGLKLMSKILQSIANHVLFTKEEHMRPFNDFVKSNFDAARRFFLDIASDCPTSDAVNHSLSFISDGNVLALHRLLWNNQEKIGQYLSSNRDHKAV
- Activation (fold), Ras GTPase activation (c-HaRas protein): 14 fold
- EC50, concentration required for 50% hydrolysis of GTP bound Ras (c-HaRas protein): 0.40 µg/mL

B2: NF 292: NF1 fragment, residues 1205-1496 (protein, UniProt P21359 1205-1496, looked up, fragment)
chain: FERLVELVTMMGDQGELPIAMALANVVPCSQWDELARVLVTLFDSRHLLYQLLWNMFSKEVELADSMQTLFRGNSLASKIMTFCFKVYGATYLQKLLDPLLRIVITSSDWQHVSFEVDPTRLEPSESLEENQRNLLQMTEKFFHAIISSSSEFPPQLRSVCHCLYQATCHSLLNKATVKEKKENKKSVVSQRFPQNSIGAVGSAMFLRFINPAIVSPYEAGILDKKPPPRIERGLKLMSKILQSIANHVLFTKEEHMRPFNDFVKSNFDAARRFFLDIASDCPTSDAVNHSL
- Ras GTPase stimulation (in words) (c-HaRas protein): stimulate normal Ras GTPase activity
- Activation (fold), Ras GTPase activation (c-HaRas protein): 11 fold
- EC50, concentration required for 50% hydrolysis of GTP bound Ras (c-HaRas protein): 7.5 µg/mL

B3: NF 342: NF1 fragment, residues 1190-1531 (protein, UniProt P21359 1190-1531, looked up, fragment)
chain: GTEFDTLAETVLADRFERLVELVTMMGDQGELPIAMALANVVPCSQWDELARVLVTLFDSRHLLYQLLWNMFSKEVELADSMQTLFRGNSLASKIMTFCFKVYGATYLQKLLDPLLRIVITSSDWQHVSFEVDPTRLEPSESLEENQRNLLQMTEKFFHAIISSSSEFPPQLRSVCHCLYQATCHSLLNKATVKEKKENKKSVVSQRFPQNSIGAVGSAMFLRFINPAIVSPYEAGILDKKPPPRIERGLKLMSKILQSIANHVLFTKEEHMRPFNDFVKSNFDAARRFFLDIASDCPTSDAVNHSLSFISDGNVLALHRLLWNNQEKIGQYLSSNRDHKAV
- Activation (fold), Ras GTPase activation (c-HaRas protein): 14 fold
- EC50, concentration required for 50% hydrolysis of GTP bound Ras (c-HaRas protein): 0.52 µg/mL

B4: NF338: NF1 protein fragment, amino acid residues 1194 to 1531, expressed from retroviral vector pMV7 (protein)
chain: DTLAETVLADRFERLVELVTMMGDQGELPIAMALANVVPCSQWDELARVLVTLFDSRHLLYQLLWNMFSKEVELADSMQTLFRGNSLASKIMTFCFKVYGATYLQKLLDPLLRIVITSSDWQHVSFEVDPTRLEPSESLEENQRNLLQMTEKFFHAIISSSSEFPPQLRSVCHCLYQVVSQRFPQNSIGAVGSAMFLRFINPAIVSPYEAGILDKKPPPRIERGLKLMSKILQSIANHVLFTKEEHMRPFNDFVKSNFDAARRFFLDIASDCPTSDAVNHSLSFISDGNVLALHRLLWNNQEKIGQYLSSNRDHKAVGRRPFDKMATLLAYLGPPEHK
- SAC (%), relative soft agar colony forming ability ([1]; clone #8, relatively low (L) mRNA level): 5%
- average size of the soft agar colony [1, 3]: medium
- Colonies/10^3 cells (number of colonies found in soft agar) [1, 3]: 37 Colonies/10^3 cells
- SAC (%), relative soft agar colony forming ability [1, 4]: 0.4%
- Colonies/10^3 cells (number of colonies found in soft agar) [1, 5]: 3 Colonies/10^3 cells
- ability to form soft agar colonies (in words) [1]: greatly reduced
- cell morphology [2]: differed significantly

B5: NF 80: NF1 fragment, residues 1452-1531 (protein, UniProt P21359 1452-1531, looked up, fragment)
chain: HVLFTKEEHMRPFNDFVKSNFDAARRFFLDIASDCPTSDAVNHSLSFISDGNVLALHRLLWNNQEKIGQYLSSNRDHKAV
- Activation (fold), Ras GTPase activation (c-HaRas protein): 0 fold

B6: NF 326: NF1 fragment, residues 1206-1531 (protein, UniProt P21359 1206-1531, looked up, fragment)
chain: ERLVELVTMMGDQGELPIAMALANVVPCSQWDELARVLVTLFDSRHLLYQLLWNMFSKEVELADSMQTLFRGNSLASKIMTFCFKVYGATYLQKLLDPLLRIVITSSDWQHVSFEVDPTRLEPSESLEENQRNLLQMTEKFFHAIISSSSEFPPQLRSVCHCLYQATCHSLLNKATVKEKKENKKSVVSQRFPQNSIGAVGSAMFLRFINPAIVSPYEAGILDKKPPPRIERGLKLMSKILQSIANHVLFTKEEHMRPFNDFVKSNFDAARRFFLDIASDCPTSDAVNHSLSFISDGNVLALHRLLWNNQEKIGQYLSSNRDHKAV
- Activation (fold), Ras GTPase activation (c-HaRas protein): 11 fold
- EC50, concentration required for 50% hydrolysis of GTP bound Ras (c-HaRas protein): 1.5 µg/mL

B7: NF357: NF1 fragment, amino acid residues 1175-1531 of human type I neurofibromin (protein, UniProt P21359 1175-1531, looked up, fragment)
chain: TRATFMEVLTKILQQGTEFDTLAETVLADRFERLVELVTMMGDQGELPIAMALANVVPCSQWDELARVLVTLFDSRHLLYQLLWNMFSKEVELADSMQTLFRGNSLASKIMTFCFKVYGATYLQKLLDPLLRIVITSSDWQHVSFEVDPTRLEPSESLEENQRNLLQMTEKFFHAIISSSSEFPPQLRSVCHCLYQATCHSLLNKATVKEKKENKKSVVSQRFPQNSIGAVGSAMFLRFINPAIVSPYEAGILDKKPPPRIERGLKLMSKILQSIANHVLFTKEEHMRPFNDFVKSNFDAARRFFLDIASDCPTSDAVNHSLSFISDGNVLALHRLLWNNQEKIGQYLSSNRDHKAV
- GTPase activity, times more active than NF91 (c-HaRas protein): twenty
- Activation (fold), Ras GTPase activation (c-HaRas protein): 14 fold
- EC50, concentration required for 50% hydrolysis of GTP bound Ras (c-HaRas protein): 0.50 µg/mL

B8: NF91: NF1 fragment, amino acid residues 1441 to 1531; GST fusion in Table II, expressed from pMV7 plasmid in cells (protein, UniProt P21359 1441-1531, looked up, fragment)
chain: LMSKILQSIANHVLFTKEEHMRPFNDFVKSNFDAARRFFLDIASDCPTSDAVNHSLSFISDGNVLALHRLLWNNQEKIGQYLSSNRDHKAV
modifications: GST fusion
- SAC (%), relative soft agar colony forming ability [1, 4]: 0%
- Colonies/10^3 cells (number of colonies found in soft agar) [1, 5]: 0 Colonies/10^3 cells
- ability to form soft agar colonies (in words) [1]: no longer able to form any soft agar colonies
- Ras GTPase stimulation (in words) (c-HaRas protein): still stimulated Ras GTPase activity; also recorded: still able to stimulate normal Ras GTPase activity
- efficiency of Ras GTPase stimulation, times less efficient compared to NF342 / NF357 (c-HaRas protein): twenty
- Activation (fold), Ras GTPase activation (c-HaRas protein): 10 fold
- EC50, concentration required for 50% hydrolysis of GTP bound Ras (c-HaRas protein): 10 µg/mL
- cell morphology [2]: morphologically flat
- cell morphology ([2]; listed as NF91 (Sense)): Flat

B9: NF 266: NF1 fragment, residues 1175-1440 (protein, UniProt P21359 1175-1440, looked up, fragment)
chain: TRATFMEVLTKILQQGTEFDTLAETVLADRFERLVELVTMMGDQGELPIAMALANVVPCSQWDELARVLVTLFDSRHLLYQLLWNMFSKEVELADSMQTLFRGNSLASKIMTFCFKVYGATYLQKLLDPLLRIVITSSDWQHVSFEVDPTRLEPSESLEENQRNLLQMTEKFFHAIISSSSEFPPQLRSVCHCLYQATCHSLLNKATVKEKKENKKSVVSQRFPQNSIGAVGSAMFLRFINPAIVSPYEAGILDKKPPPRIERGLK
- Activation (fold), Ras GTPase activation (c-HaRas protein): 0 fold
